# Results taken from paper PMC6703430, “Combining Mutations That Inhibit Two Distinct Steps of the ATP Hydrolysis Cycle Restores Wild-Type Function in the Lipopolysaccharide Transporter and Shows that ATP Binding Triggers Transport” (mBio, 2019).
# B1: His8-LptB^E163Q (enzyme, E. coli, UniProt P0A9V1 1-241, looked up)
# chain: MATLTAKNLAKAYKGRRVVEDVSLTVNSGEIVGLLGPNGAGKTTTFYMVVGIVPRDAGNIIIDDDDISLLPLHARARRGIGYLPQEASIFRRLSVYDNLMAVLQIRDDLSAEQREDRANELMEEFHIEHLRDSMGQSLSGGERRRVEIARALAANPKFILLDQPFAGVDPISVIDIKRIIEHLRDSGLGVLITDHNVRETLAVCERAYIVSQGHLIAHGTPTEILQDEHVKRVYLGEDFRL
# notes: catalytically dead E163Q variant; the CTD is fully resolved up to L241, the last residue of LptB; A TEV protease cleavage site stands between the His8 tag and LptB; no TEV cleavage is described; also called His8TEV-LptB(E163Q); His-LptB(E163Q); source: E. coli KRX, pET28b(+)-His8TEV-LptB(E163Q), purified (Ni-NTA, gel filtration on Superdex 200); not shown: His8, N-terminal, kept
# Target: the molecule itself
# Test: crystal structure; ATP-bound His8-LptB^E163Q, 1.96 Å; hanging drops, reservoir 28% PEG 4000, 100 mM MES pH 6.75, 600 mM NaCl; space group C222(1)
protein,measurement,value
B1,stoichiometry N,2
